Our source for the EC50 values is patent publication US20250382352A1 (SCG CELL THERAPY PTE, published 2025).

What all share (test): ELISA, recombinant protein
The target in assay [1] is T1, HBsAg recombinant protein (hepatitis B virus).
T1 chain: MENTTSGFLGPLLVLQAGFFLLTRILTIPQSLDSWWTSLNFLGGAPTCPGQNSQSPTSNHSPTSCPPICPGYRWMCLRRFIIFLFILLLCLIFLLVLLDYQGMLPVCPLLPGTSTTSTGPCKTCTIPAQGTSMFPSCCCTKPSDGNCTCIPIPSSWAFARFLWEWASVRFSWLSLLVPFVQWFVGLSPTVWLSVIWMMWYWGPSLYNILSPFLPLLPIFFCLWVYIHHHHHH
The procedure: (§1) Anti-HBsAg/anti-CD3 bispecific antibodies generated in Example 1 are analyzed by standard ELISA techniques for their binding properties to HBsAg, human CD3E, and rhesus CD3ε recombinant protein, respectively.

Assay [2] deals with T2, human CD3ε recombinant protein (human, UniProt P07766 23-126).
T2 construct: also called human CD3E; huCD3ε
T2 sequence (P07766 23-126 limits assumed): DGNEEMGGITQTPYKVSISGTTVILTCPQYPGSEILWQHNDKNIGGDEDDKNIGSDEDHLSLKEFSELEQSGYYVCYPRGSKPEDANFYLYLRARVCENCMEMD
Here is the method: as §1

The target in assay [3] is T3, rhesus CD3ε recombinant protein (rhesus).
T3 construct: also called rhesus CD38 [sic]
The procedure: as §1

B1: BsAb2-6-012 (bispecific antibody)
heavy: not shown
light: QTVVTQEPSLTVSPGGTVTLTCRSSTGAVTTSNYANWVQQKPGQAPRGLIGGTNKRAPGTPARFSGSLLGDKAALTLSGVQPEDEAEYYCALWYSNLWVFGGGTKLTVLRTVAAPSVFIFPPSDEQLKSGTASVVCLLNNFYPREAKVQWKVDNALQSGNSQESVTEQDSKDSTYSLSSTLTLSKADYEKHKVYACEVTHQGLSSPVTKSFNRGEC
notes: also called VH3VL2
In the case of B1, the EC50 in assay [1] was 0.45 nM; in assay [2] it was 0.32 nM; in assay [3] it was 0.24 nM.

B2: BsAb2-5-002 (bispecific antibody)
heavy: not shown
light: QTVVTQEPSLTVSPGGTVTLTCRSSTGAVTTSNYANWVQQKPGQAPRGLIGGTNKRAPGTPARFSGSLLGDKAALTLSGVQPEDEAEYYCALWYSNLWVFGGGTKLTVLRTVAAPSVFIFPPSDEQLKSGTASVVCLLNNFYPREAKVQWKVDNALQSGNSQESVTEQDSKDSTYSLSSTLTLSKADYEKHKVYACEVTHQGLSSPVTKSFNRGEC
notes: also called VH1VL2
Take B2: the EC50 in assay [1] turned out to be 0.16 nM; in assay [3], 0.3 nM.

B3: BsAb2-5-021 (bispecific antibody)
heavy: not shown
light: QTVVTQEPSLTVSPGGTVTLTCRSSTGAVTTSNYANWVQQKPGQAPRALIGGTNKRAPWTPARFSGSLLGDKAALTLSGVQPEDEAEYYCALWYSNLWVFGGGTKLTVLRTVAAPSVFIFPPSDEQLKSGTASVVCLLNNFYPREAKVQWKVDNALQSGNSQESVTEQDSKDSTYSLSSTLTLSKADYEKHKVYACEVTHQGLSSPVTKSFNRGEC
notes: also called VH5VL1
On to B3, for which the results for the EC50 in assay [1] and in assay [3] were 0.14 nM and 3.88 nM, respectively.

B4: BsAb2-5-028 (bispecific antibody)
heavy: not shown
light: QAVVTQEPSLTVSPGGTVTLTCRSSTGAVTTSNYANWVQQKPGQAPRGLIGGTNKRAPGTPARFSGSLLGDKAALTLSGVQPEDEAEYFCALWYSNLWVFGGGTKLTVLRTVAAPSVFIFPPSDEQLKSGTASVVCLLNNFYPREAKVQWKVDNALQSGNSQESVTEQDSKDSTYSLSSTLTLSKADYEKHKVYACEVTHQGLSSPVTKSFNRGEC
notes: also called VH6VL3
Consider B4, for which the EC50 amounted to 0.19 nM in assay [1] and 0.31 nM in assay [3].

B5: BsAb2-5-027 (bispecific antibody)
heavy: not shown
light: QTVVTQEPSLTVSPGGTVTLTCRSSTGAVTTSNYANWVQQKPGQAPRGLIGGTNKRAPGTPARFSGSLLGDKAALTLSGVQPEDEAEYYCALWYSNLWVFGGGTKLTVLRTVAAPSVFIFPPSDEQLKSGTASVVCLLNNFYPREAKVQWKVDNALQSGNSQESVTEQDSKDSTYSLSSTLTLSKADYEKHKVYACEVTHQGLSSPVTKSFNRGEC
notes: also called VH6VL2
With B5, the EC50 in assay [1] is 0.16 nM; in assay [3] it was 0.28 nM.

B6: BsAb2-5-026 (bispecific antibody)
heavy: not shown
light: QTVVTQEPSLTVSPGGTVTLTCRSSTGAVTTSNYANWVQQKPGQAPRALIGGTNKRAPWTPARFSGSLLGDKAALTLSGVQPEDEAEYYCALWYSNLWVFGGGTKLTVLRTVAAPSVFIFPPSDEQLKSGTASVVCLLNNFYPREAKVQWKVDNALQSGNSQESVTEQDSKDSTYSLSSTLTLSKADYEKHKVYACEVTHQGLSSPVTKSFNRGEC
notes: also called VH6VL1
On to B6, for which the figures for the EC50 in assay [1] and in assay [3] were 0.18 nM and 2.09 nM, respectively.

B7: BsAb2-6-013 (bispecific antibody)
heavy: not shown
light: QAVVTQEPSLTVSPGGTVTLTCRSSTGAVTTSNYANWVQQKPGQAPRGLIGGTNKRAPGTPARFSGSLLGDKAALTLSGVQPEDEAEYFCALWYSNLWVFGGGTKLTVLRTVAAPSVFIFPPSDEQLKSGTASVVCLLNNFYPREAKVQWKVDNALQSGNSQESVTEQDSKDSTYSLSSTLTLSKADYEKHKVYACEVTHQGLSSPVTKSFNRGEC
notes: also called VH3VL3
In the case of B7, the EC50 in assay [1] came to 0.47 nM; in assay [2] it was 0.33 nM; in assay [3], 0.26 nM.

B8: BsAb2-5-007 (bispecific antibody)
heavy: not shown
light: QTVVTQEPSLTVSPGGTVTLTCRSSTGAVTTSNYANWVQQKPGQAPRGLIGGTNKRAPGTPARFSGSLLGDKAALTLSGVQPEDEAEYYCALWYSNLWVFGGGTKLTVLRTVAAPSVFIFPPSDEQLKSGTASVVCLLNNFYPREAKVQWKVDNALQSGNSQESVTEQDSKDSTYSLSSTLTLSKADYEKHKVYACEVTHQGLSSPVTKSFNRGEC
notes: also called VH2VL2
B8: the figures for the EC50 in assay [1] and in assay [3] were 0.23 nM and 0.4 nM, respectively.

B9: BsAb2-5-022 (bispecific antibody)
heavy: not shown
light: QTVVTQEPSLTVSPGGTVTLTCRSSTGAVTTSNYANWVQQKPGQAPRGLIGGTNKRAPGTPARFSGSLLGDKAALTLSGVQPEDEAEYYCALWYSNLWVFGGGTKLTVLRTVAAPSVFIFPPSDEQLKSGTASVVCLLNNFYPREAKVQWKVDNALQSGNSQESVTEQDSKDSTYSLSSTLTLSKADYEKHKVYACEVTHQGLSSPVTKSFNRGEC
notes: also called VH5VL2
As to B9, the figures for the EC50 in assay [1] and in assay [3] were 0.16 nM and 0.31 nM, respectively.

B10: BsAb2-5-003 (bispecific antibody)
heavy: not shown
light: QAVVTQEPSLTVSPGGTVTLTCRSSTGAVTTSNYANWVQQKPGQAPRGLIGGTNKRAPGTPARFSGSLLGDKAALTLSGVQPEDEAEYFCALWYSNLWVFGGGTKLTVLRTVAAPSVFIFPPSDEQLKSGTASVVCLLNNFYPREAKVQWKVDNALQSGNSQESVTEQDSKDSTYSLSSTLTLSKADYEKHKVYACEVTHQGLSSPVTKSFNRGEC
notes: also called VH1VL3
With B10, the EC50 is 0.21 nM in assay [1] and 0.34 nM in assay [3].

B11: BsAb2-5-008 (bispecific antibody)
heavy: not shown
light: QAVVTQEPSLTVSPGGTVTLTCRSSTGAVTTSNYANWVQQKPGQAPRGLIGGTNKRAPGTPARFSGSLLGDKAALTLSGVQPEDEAEYFCALWYSNLWVFGGGTKLTVLRTVAAPSVFIFPPSDEQLKSGTASVVCLLNNFYPREAKVQWKVDNALQSGNSQESVTEQDSKDSTYSLSSTLTLSKADYEKHKVYACEVTHQGLSSPVTKSFNRGEC
notes: also called VH2VL3
In the case of B11, the figures for the EC50 in assay [1] and in assay [3] were 0.19 nM and 0.24 nM, respectively.

B12: BsAb2-5-006 (bispecific antibody)
heavy: not shown
light: QTVVTQEPSLTVSPGGTVTLTCRSSTGAVTTSNYANWVQQKPGQAPRALIGGTNKRAPWTPARFSGSLLGDKAALTLSGVQPEDEAEYYCALWYSNLWVFGGGTKLTVLRTVAAPSVFIFPPSDEQLKSGTASVVCLLNNFYPREAKVQWKVDNALQSGNSQESVTEQDSKDSTYSLSSTLTLSKADYEKHKVYACEVTHQGLSSPVTKSFNRGEC
notes: also called VH2VL1
As to B12, the EC50 in assay [1] was 0.9 nM; in assay [3], 2.12 nM.

B13: BsAb2-5-023 (bispecific antibody)
heavy: not shown
light: QAVVTQEPSLTVSPGGTVTLTCRSSTGAVTTSNYANWVQQKPGQAPRGLIGGTNKRAPGTPARFSGSLLGDKAALTLSGVQPEDEAEYFCALWYSNLWVFGGGTKLTVLRTVAAPSVFIFPPSDEQLKSGTASVVCLLNNFYPREAKVQWKVDNALQSGNSQESVTEQDSKDSTYSLSSTLTLSKADYEKHKVYACEVTHQGLSSPVTKSFNRGEC
notes: also called VH5VL3
For B13, the EC50 in assay [1] came out at 0.18 nM; in assay [3], 0.22 nM.

B14: BsAb2-5-015 (bispecific antibody)
heavy: not shown
light: QTVVTQEPSFSVSPGGTVTLTCRSSTGAVTTSNYANWVQQTPGQAPRGLIGGTNKRAPGVPDRFSGSILGDKAALTITGAQADDESDYYCALWYSNLWVFGGGTKLTVLRTVAAPSVFIFPPSDEQLKSGTASVVCLLNNFYPREAKVQWKVDNALQSGNSQESVTEQDSKDSTYSLSSTLTLSKADYEKHKVYACEVTHQGLSSPVTKSFNRGEC
notes: also called VH3VL5
Take B14: the values for the EC50 in assay [1], in assay [2] and in assay [3] were 0.17 nM, 0.27 nM and 0.27 nM, respectively.

B15: BsAb2-6-005 (bispecific antibody)
heavy: not shown
light: QTVVTQEPSFSVSPGGTVTLTCRSSTGAVTTSNYANWVQQTPGQAPRGLIGGTNKRAPGVPDRFSGSILGDKAALTITGAQADDESDYYCALWYSNLWVFGGGTKLTVLRTVAAPSVFIFPPSDEQLKSGTASVVCLLNNFYPREAKVQWKVDNALQSGNSQESVTEQDSKDSTYSLSSTLTLSKADYEKHKVYACEVTHQGLSSPVTKSFNRGEC
notes: also called VH1VL5
Regarding B15, the EC50 is 0.45 nM in assay [1] and 0.18 nM in assay [3].

B16: BsAb2-6-010 (bispecific antibody)
heavy: not shown
light: QTVVTQEPSFSVSPGGTVTLTCRSSTGAVTTSNYANWVQQTPGQAPRGLIGGTNKRAPGVPDRFSGSILGDKAALTITGAQADDESDYYCALWYSNLWVFGGGTKLTVLRTVAAPSVFIFPPSDEQLKSGTASVVCLLNNFYPREAKVQWKVDNALQSGNSQESVTEQDSKDSTYSLSSTLTLSKADYEKHKVYACEVTHQGLSSPVTKSFNRGEC
notes: also called VH2VL5
For the molecule B16, the EC50 stood at 0.46 nM in assay [1] and 0.23 nM in assay [3].

B17: BsAb2-5-020 (bispecific antibody)
heavy: not shown
light: QTVVTQEPSFSVSPGGTVTLTCRSSTGAVTTSNYANWVQQTPGQAPRGLIGGTNKRAPGVPDRFSGSILGDKAALTITGAQADDESDYYCALWYSNLWVFGGGTKLTVLRTVAAPSVFIFPPSDEQLKSGTASVVCLLNNFYPREAKVQWKVDNALQSGNSQESVTEQDSKDSTYSLSSTLTLSKADYEKHKVYACEVTHQGLSSPVTKSFNRGEC
notes: also called VH4VL5
Take B17: the results for the EC50 in assay [1], in assay [2] and in assay [3] were 0.16 nM, 0.28 nM and 0.26 nM, respectively.

B18: BsAb2-6-025 (bispecific antibody)
heavy: not shown
light: QTVVTQEPSFSVSPGGTVTLTCRSSTGAVTTSNYANWVQQTPGQAPRGLIGGTNKRAPGVPDRFSGSILGDKAALTITGAQADDESDYYCALWYSNLWVFGGGTKLTVLRTVAAPSVFIFPPSDEQLKSGTASVVCLLNNFYPREAKVQWKVDNALQSGNSQESVTEQDSKDSTYSLSSTLTLSKADYEKHKVYACEVTHQGLSSPVTKSFNRGEC
notes: also called VH5VL5
With B18, the EC50 in assay [1] was 1.5 nM; in assay [3], 0.5 nM.

B19: BsAb2-6-030 (bispecific antibody)
heavy: not shown
light: QTVVTQEPSFSVSPGGTVTLTCRSSTGAVTTSNYANWVQQTPGQAPRGLIGGTNKRAPGVPDRFSGSILGDKAALTITGAQADDESDYYCALWYSNLWVFGGGTKLTVLRTVAAPSVFIFPPSDEQLKSGTASVVCLLNNFYPREAKVQWKVDNALQSGNSQESVTEQDSKDSTYSLSSTLTLSKADYEKHKVYACEVTHQGLSSPVTKSFNRGEC
notes: also called VH6VL5
On to B19, for which the values for the EC50 in assay [1] and in assay [3] were 0.48 nM and 0.13 nM, respectively.
